# Publication PMC8719716
# Experiments:
# Plk1 PB1 and PB2 domains = Plk1 PB1 and PB2 domains (UniProt P70032); assay: reciprocal co-IP of tagged proteins, embryo lysates; conditions: reference: wild type CEP97; sites S634,S643,S649,S653
# Plk1 = Plk1 (UniProt P70032); assay: as above; conditions: reference: wild type CEP97; sites S634,S643,S649,S653
substance,measurement,setting,value
"CEP97 (from UniProt Q6GPJ8) CEP97 SA (S634A, S643A, S649A, S653A)",binding against the reference,Plk1 PB1 and PB2 domains,lost
same,binding against the reference,Plk1,weaker
